Data: US20240109965A1 (Ablynx, published 2024)

Experiments:
[1] = molecular target: T1, cynomolgus TCRαβ-zipper protein (cynomolgus); test: SPR Biacore 8K+, multi-cycle kinetics, TCR-zipper immobilized
T1 construct: also called cyTCR(AEA41865)-zipper; CynoTCRαβ-zipper
Method: Binding of purified TCE-CD123-ALB and CD123-TCE-ALB ISVD constructs to human TCRαβ-zipper protein (huTCR(2XN9)-zipper, in-house produced) and cynomolgus TCRαβ-zipper protein (cyTCR(AEA41865)-zipper, in-house produced) was probed by Surface Plasmon Resonance (SPR) (Cytiva, Biacore 8K+). Both targets were immobilized on a CM5 sensor chip using standard amine coupling chemistry. […] Each concentration of the ISVDs was injected for 180s and dissociation was assessed during 600s.
Data was double referenced by subtracting a reference flow cell (FC) and a blank buffer injection. Affinity constants (ka, kd and KD) were calculated applying the Langmuir 1:1 interaction model using the Biacore Insight Evaluation Software (Cytiva, Version 3.0.12.15655).
T1 TCR alpha: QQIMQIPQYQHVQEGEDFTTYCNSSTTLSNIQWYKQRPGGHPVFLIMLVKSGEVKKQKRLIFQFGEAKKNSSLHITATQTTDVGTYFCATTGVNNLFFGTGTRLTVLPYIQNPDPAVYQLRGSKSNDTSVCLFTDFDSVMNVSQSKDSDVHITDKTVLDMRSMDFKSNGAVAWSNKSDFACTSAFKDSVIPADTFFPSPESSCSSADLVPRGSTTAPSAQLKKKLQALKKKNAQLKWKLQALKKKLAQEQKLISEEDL
T1 TCR beta: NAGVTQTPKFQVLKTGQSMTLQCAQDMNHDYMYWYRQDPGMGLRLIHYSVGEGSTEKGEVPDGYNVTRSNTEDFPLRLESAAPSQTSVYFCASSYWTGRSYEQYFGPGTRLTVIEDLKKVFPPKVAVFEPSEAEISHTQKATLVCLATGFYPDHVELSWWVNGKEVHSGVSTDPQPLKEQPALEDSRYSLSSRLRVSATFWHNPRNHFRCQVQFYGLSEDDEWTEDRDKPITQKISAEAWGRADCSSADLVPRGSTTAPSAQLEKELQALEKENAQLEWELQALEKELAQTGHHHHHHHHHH

[2] = molecular target: T2, human T cell receptor (TCRαβ) on primary human T cells (human); test: cell-based or functional assay
T2 sequence (P0DTU3 134-275, chain 1 of 2): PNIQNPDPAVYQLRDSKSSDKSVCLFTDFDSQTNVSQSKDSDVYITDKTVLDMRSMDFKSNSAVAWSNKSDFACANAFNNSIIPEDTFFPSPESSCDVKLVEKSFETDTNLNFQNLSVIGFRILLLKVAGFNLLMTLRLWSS
T2 sequence (P01850 other isoform, or with tags, fused parts or gaps, chain 2 of 2, further chain): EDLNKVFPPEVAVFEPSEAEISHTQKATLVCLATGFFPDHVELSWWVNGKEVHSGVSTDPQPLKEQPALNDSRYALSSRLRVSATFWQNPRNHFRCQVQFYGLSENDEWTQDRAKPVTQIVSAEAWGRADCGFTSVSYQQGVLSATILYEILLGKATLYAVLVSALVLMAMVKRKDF

[3] = molecular target: T3, cynomolgus T cell receptor (TCRαβ) on primary cynomolgus T cells (cynomolgus); test: cell-based or functional assay
T3 V domain 1: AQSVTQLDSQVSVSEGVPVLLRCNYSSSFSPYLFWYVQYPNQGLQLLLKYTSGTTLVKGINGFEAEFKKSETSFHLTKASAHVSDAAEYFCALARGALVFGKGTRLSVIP
T3 V domain 2: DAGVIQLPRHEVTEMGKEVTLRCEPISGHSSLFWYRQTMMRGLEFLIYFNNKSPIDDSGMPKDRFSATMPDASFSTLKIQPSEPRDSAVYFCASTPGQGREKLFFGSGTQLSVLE

[4] = molecular target: T2, human T cell receptor (TCRαβ) on …; test: cell-based or functional assay; remark: listed apart in the source

Binder	Kd [1] [nM]	Potency (M) - human T cells, KG-1a cell killing [2] [M]	Potency (M) - cyno T cells, KG-1a cell killing [3] [M]	EC50 (M), human T cell mediated MOLM-13 cell killing, Donor #1 [4] [M]	EC50 (M), human T cell mediated MOLM-13 cell killing, Donor #2 [4] [M]
T017001017 (bispecific antibody) EVQLVESGGGVVQPGGSLRLSCVASGYVHKINFYGWYRQAPGKEREKVAHISIGDQTDYADSAKGRFTISRDESKNTVYLQMNSLRPEDTAAYYCRALSRIWPYDYWGQGTLVTVSSGGGGSGGGSEVQLVESGGGVVQPGGSLRLSCAASGTTLDYYVIGWFRQAPGKEREGVSCISSSDGYTYYADSVKGRFTISRDNAKNTVYLQMNSLRPEDTALYYCATDPYYSSCHPFFADYEYDYWGQGTLVTVSSGGGGSGGGSEVQLVESGGGVVQPGGSLRLSCAASGFTFRSFGMSWVRQAPGKGPEWVSSISGSGSDTLYADSVKGRFTISRDNSKNTLYLQMNSLRPEDTALYYCTIGGSLSRSSQGTLVTVSS	13	2.1e-10	3.9e-11	4.5e-11	9.2e-11
T017001021 (bispecific antibody) EVQLVESGGGVVQPGGSLRLSCVASGYVHKINFYGWYRQAPGKEREKVAHISIGDQTDYAESAKGRFTISRDESKNTVYLQMNSLRPEDTAAYYCRALSRIQPYDYWGQGTLVTVSSGGGGSGGGSEVQLVESGGGVVQPGGSLRLSCAASGTTLDYYVIGWFRQAPGKEREGVSCISSSDGYTYYADSVKGRFTISRDNAKNTVYLQMNSLRPEDTALYYCATDPYYSSCHPFFADYEYDYWGQGTLVTVSSGGGGSGGGSEVQLVESGGGVVQPGGSLRLSCAASGFTFRSFGMSWVRQAPGKGPEWVSSISGSGSDTLYADSVKGRFTISRDNSKNTLYLQMNSLRPEDTALYYCTIGGSLSRSSQGTLVTVSS	3400	5.7e-09	9.4e-10	2.3e-10	2.1e-09
T017001019 (bispecific antibody) EVQLVESGGGVVQPGGSLRLSCVASGYVHKINFYGWYRQAPGKEREKVAHISIGDQTDYAESAKGRFTISRDESKNTVYLQMNSLRPEDTAAYYCRALSRITPYDYWGQGTLVTVSSGGGGSGGGSEVQLVESGGGVVQPGGSLRLSCAASGTTLDYYVIGWFRQAPGKEREGVSCISSSDGYTYYADSVKGRFTISRDNAKNTVYLQMNSLRPEDTALYYCATDPYYSSCHPFFADYEYDYWGQGTLVTVSSGGGGSGGGSEVQLVESGGGVVQPGGSLRLSCAASGFTFRSFGMSWVRQAPGKGPEWVSSISGSGSDTLYADSVKGRFTISRDNSKNTLYLQMNSLRPEDTALYYCTIGGSLSRSSQGTLVTVSS	1600	2.3e-09	7.4e-10	1.5e-10	5.2e-10
T017001018 (bispecific antibody) EVQLVESGGGVVQPGGSLRLSCVASGYVHKINFYGWYRQAPGKEREKVAHISIGDQTDYAESAKGRFTISRDESKNTVYLQMNSLRPEDTAAYYCRALSRIYPYDYWGQGTLVTVSSGGGGSGGGSEVQLVESGGGVVQPGGSLRLSCAASGTTLDYYVIGWFRQAPGKEREGVSCISSSDGYTYYADSVKGRFTISRDNAKNTVYLQMNSLRPEDTALYYCATDPYYSSCHPFFADYEYDYWGQGTLVTVSSGGGGSGGGSEVQLVESGGGVVQPGGSLRLSCAASGFTFRSFGMSWVRQAPGKGPEWVSSISGSGSDTLYADSVKGRFTISRDNSKNTLYLQMNSLRPEDTALYYCTIGGSLSRSSQGTLVTVSS	32	2.7e-10	4e-11	3.3e-11	1e-10
